The values that follow come from FireProtDB (doi:10.1021/bi00102a015).

The conditions of the data set: Rhodobacter capsulatus (strain ATCC BAA-309 / NBRC 16581 / SB1003); pH 7.5; 25 °C; GdnHCl; CD; Tris-HCl 20 mM; NaCl 40 mM; whole UniProt chain shown.

B1: Cytochrome c2 wild type, P00094 (protein)
chain: MKISLTAATVAALVLAAPAFAGDAAKGEKEFNKCKTCHSIIAPDGTEIVKGAKTGPNLYGVVGRTAGTYPEFKYKDSIVALGASGFAWTEEDIATYVKDPGAFLKEKLDDKKAKTGMAFKLAKGGEDVAAYLASVVK
For the protein B1, the denaturant m value is 2.7 kcal/mol/M, the “denaturant midpoint (higher = more stable)” value was 1.7 M and the unfolding free energy was determined as 4.4 kcal/mol.
